Data on 3 variants can be found in IntAct's records for PubMed 24097060.

Sequences and labels used below:
B1: Chromosome partition protein MukB (Escherichia coli (strain K12)), P22523 (parent)
chain: MIERGKFRSLTLINWNGFFARTFDLDELVTTLSGGNGAGKSTTMAAFVTALIPDLTLLHFRNTTEAGATSGSRDKGLHGKLKAGVCYSMLDTINSRHQRVVVGVRLQQVAGRDRKVDIKPFAIQGLPMSVQPTQLVTETLNERQARVLPLNELKDKLEAMEGVQFKQFNSITDYHSLMFDLGIIARRLRSASDRSKFYRLIEASLYGGISSAITRSLRDYLLPENSGVRKAFQDMEAALRENRMTLEAIRVTQSDRDLFKHLISEATNYVAADYMRHANERRVHLDKALEFRRELHTSRQQLAAEQYKHVDMARELAEHNGAEGDLEADYQAASDHLNLVQTALRQQEKIERYEADLDELQIRLEEQNEVVAEAIERQQENEARAEAAELEVDELKSQLADYQQALDVQQTRAIQYNQAIAALNRAKELCHLPDLTADCAAEWLETFQAKELEATEKMLSLEQKMSMAQTAHSQFEQAYQLVVAINGPLARNEAWDVARELLREGVDQRHLAEQVQPLRMRLSELEQRLREQQEAERLLADFCKRQGKNFDIDELEALHQELEARIASLSDSVSNAREERMALRQEQEQLQSRIQSLMQRAPVWLAAQNSLNQLSEQCGEEFTSSQDVTEYLQQLLEREREAIVERDEVGARKNAVDEEIERLSQPGGSEDQRLNALAERFGGVLLSEIYDDVSLEDAPYFSALYGPSRHAIVVPDLSQVTEHLEGLTDCPEDLYLIEGDPQSFDDSVFSVDELEKAVVVKIADRQWRYSRFPEVPLFGRAARESRIESLHAEREVLSERFATLSFDVQKTQRLHQAFSRFIGSHLAVAFESDPEAEIRQLNSRRVELERALSNHENDNQQQRIQFEQAKEGVTALNRILPRLNLLADDSLADRVDEIRERLDEAQEAARFVQQFGNQLAKLEPIVSVLQSDPEQFEQLKEDYAYSQQMQRDARQQAFALTEVVQRRAHFSYSDSAEMLSGNSDLNEKLRERLEQAEAERTRAREALRGHAAQLSQYNQVLASLKSSYDTKKELLNDLQRELQDIGVRADSGAEERARIRRDELHAQLSNNRSRRNQLEKALTFCEAEMDNLTRKLRKLERDYFEMREQVVTAKAGWCAVMRMVKDNGVERRLHRRELAYLSADDLRSMSDKALGALRLAVADNEHLRDVLRMSEDPKRPERKIQFFVAVYQHLRERIRQDIIRTDDPVEAIEQMEIELSRLTEELTSREQKLAISSRSVANIIRKTIQREQNRIRMLNQGLQNVSFGQVNSVRLNVNVRETHAMLLDVLSEQHEQHQDLFNSNRLTFSEALAKLYQRLNPQIDMGQRTPQTIGEELLDYRNYLEMEVEVNRGSDGWLRAESGALSTGEAIGTGMSILVMVVQSWEDESRRLRGKDISPCRLLFLDEAARLDARSIATLFELCERLQMQLIIAAPENISPEKGTTYKLVRKVFQNTEHVHVVGLRGFAPQLPETLPGTDEAPSQAS
partner: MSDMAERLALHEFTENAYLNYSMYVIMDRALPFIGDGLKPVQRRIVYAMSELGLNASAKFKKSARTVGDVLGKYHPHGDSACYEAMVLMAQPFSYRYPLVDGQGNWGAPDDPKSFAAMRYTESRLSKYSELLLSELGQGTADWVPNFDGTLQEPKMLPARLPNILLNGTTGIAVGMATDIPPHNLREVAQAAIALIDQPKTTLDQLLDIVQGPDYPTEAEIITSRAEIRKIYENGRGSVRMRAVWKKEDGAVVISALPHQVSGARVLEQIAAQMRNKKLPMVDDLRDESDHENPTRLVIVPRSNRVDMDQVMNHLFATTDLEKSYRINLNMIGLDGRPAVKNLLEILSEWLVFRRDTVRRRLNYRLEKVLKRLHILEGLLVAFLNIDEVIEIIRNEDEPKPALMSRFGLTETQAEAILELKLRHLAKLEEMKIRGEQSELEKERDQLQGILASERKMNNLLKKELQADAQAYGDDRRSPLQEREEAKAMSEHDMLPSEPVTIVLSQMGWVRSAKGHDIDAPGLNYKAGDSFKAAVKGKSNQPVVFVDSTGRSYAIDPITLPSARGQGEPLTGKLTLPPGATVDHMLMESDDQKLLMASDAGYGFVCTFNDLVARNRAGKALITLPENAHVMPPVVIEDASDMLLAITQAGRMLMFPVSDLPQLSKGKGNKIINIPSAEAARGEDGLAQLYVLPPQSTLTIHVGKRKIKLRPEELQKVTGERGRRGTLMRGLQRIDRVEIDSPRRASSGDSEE
B2: DNA topoisomerase 4 subunit A (Escherichia coli (strain K12)), P0AFI2 (parent)
chain: B1 partner
partner: B1 chain

In the first test the parent is B1. As to conditions: with parc_ecoli parC.
On to D692F, for which the “effect of a mutation on the interaction” value was “decreasing interaction”.

A further test covers variants of B1. As to conditions: with parc_ecoli parC. This is another data set of the same source.
As to D692F;D746R;E753R, the “effect of a mutation on the interaction” value is “disrupting interaction”.

Variants of B2 are the subject of another test. As to conditions: with mukb_ecoli mukB.
With R705D;R729D, the “effect of a mutation on the interaction” value is given as “disrupting interaction”.
